From patent publication US20160108123A1 (Novartis, published 2016) come the findings set out here.

The target of one experiment is T1, human PD-L1 protein (human, UniProt Q9NZQ7 19-238, limits assumed).
T1 construct: Construct not described
Nature of the experiment: Biacore T-100; IgG captured by anti-human Fab on CM5 chip, PD-L1 flowed over (100-1.56 nM), 1:1 fit. As to the method:
(§1) Immobilization was done at 25° C. using a flow rate of 10 μl/min. […] Test antibody was captured on Flow cell FC2, FC3 and FC4. […] Run Biacore Wizards Kinetic/Affinity: association time 120 sec, dissociation 600 sec. (Running buffer HBS-EP+BSA 0.25 mg/ml, Regeneration buffer: 10 mM glycine HCl pH 2.1). Data analyses were done with Biacore T-100 Evaluation software version 2, fit on 1:1.
Background: Surface plasmon resonance follows binding to a sensor surface in real time, without labels.

A further experiment deals with T2, cynomolgus PD-L1 protein (cynomolgus, UniProt G7PSE7 19-238).
T2 construct: also called Monkey PD-L1; cyno PD-L1
The experiment is described as above. On the procedure:
as §1

The target of the next experiment is mouse PD-L1 protein (mouse, UniProt Q9EP73 19-238, limits assumed). Described as above. On the procedure:
as §1

Another experiment has as its target rat PD-L1 protein (rat, UniProt D4AE25 19-239). The description is as above. As to the method: as §1
Experiment [1] has as its target T3, human PD-L1 expressed on 300.19 cells (human, UniProt Q9NZQ7 19-290).
T3 construct: whole, on cells; also called huPD-L1; PD-L1-expressing 300.19 cells
Nature of the experiment: competition FACS against Alexa 488-labeled murine BAP058 on PD-L1-expressing 300.19 cells. On the procedure: (§2) Incubations with the mAb mixtures having different concentration ratios of test mAb to labeled mAb was at 4° C. for 30 min. Bound labeled murine mAb was then quantified using a FACS machine. The experiment was performed twice.

Experiment [2] deals with T3, human PD-L1 expressed on 300.19 cells. Nature of the experiment: blocking of PE-labelled PD-1-Ig (0.7 µg/mL) binding to PD-L1-expressing 300.19 cells, FACS, 4 C, 4 h. As to the method: (§3) Bound fluorescence was then measured using FACS and IC₅₀ values determined using Prism software.
For experiment [3] the target is unchanged. As to the kind of experiment: semi-quantitative ranking in the binding studies (4th column, p-1058; FACS data, p-1056); high number = poorer binder; the column's head says only 'Rank'.
Experiment [4] has the same target. As to the kind of experiment: FACS competition on PD-L1-expressing 300.19 cells; competitor Alexa 488-labeled murine BAP058. On the procedure: as §2
For experiment [5] the target is unchanged. Nature of the experiment: FACS competition; blocking of PE-labelled PD-1-Ig (0.7 ug/mL) on PD-L1-expressing 300.19 cells. On the procedure: as §3

T3 sequence (Q9NZQ7 19-290): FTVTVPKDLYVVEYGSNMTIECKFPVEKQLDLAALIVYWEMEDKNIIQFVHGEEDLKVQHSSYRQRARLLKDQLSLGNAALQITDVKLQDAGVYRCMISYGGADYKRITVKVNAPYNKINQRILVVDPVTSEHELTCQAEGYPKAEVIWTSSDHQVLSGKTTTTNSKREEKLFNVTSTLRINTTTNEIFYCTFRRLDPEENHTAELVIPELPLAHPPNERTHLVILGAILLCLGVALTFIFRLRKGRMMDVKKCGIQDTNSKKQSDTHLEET
T2 sequence (G7PSE7 entry or part of it): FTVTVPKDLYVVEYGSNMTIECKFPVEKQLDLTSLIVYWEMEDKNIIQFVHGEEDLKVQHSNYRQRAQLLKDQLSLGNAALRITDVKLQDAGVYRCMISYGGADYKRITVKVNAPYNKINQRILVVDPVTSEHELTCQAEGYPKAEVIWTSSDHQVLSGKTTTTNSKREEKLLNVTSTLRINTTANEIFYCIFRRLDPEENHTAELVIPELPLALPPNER
T1 sequence (Q9NZQ7 19-238 limits assumed): as the sequence (G7PSE7 entry or part of it) above, with T33A, S34A, N62S, Q68R, R82Q, L173F, A185T, I192T, L215H counted along it
mouse PD-L1 protein, sequence (Q9EP73 19-238 limits assumed): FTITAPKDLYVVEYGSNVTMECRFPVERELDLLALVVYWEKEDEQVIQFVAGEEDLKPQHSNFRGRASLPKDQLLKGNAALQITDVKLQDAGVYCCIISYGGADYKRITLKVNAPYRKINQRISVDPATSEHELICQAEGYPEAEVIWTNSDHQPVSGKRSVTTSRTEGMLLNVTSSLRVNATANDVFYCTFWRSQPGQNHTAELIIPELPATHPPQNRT
rat PD-L1 protein, sequence (D4AE25 entry or part of it limits assumed): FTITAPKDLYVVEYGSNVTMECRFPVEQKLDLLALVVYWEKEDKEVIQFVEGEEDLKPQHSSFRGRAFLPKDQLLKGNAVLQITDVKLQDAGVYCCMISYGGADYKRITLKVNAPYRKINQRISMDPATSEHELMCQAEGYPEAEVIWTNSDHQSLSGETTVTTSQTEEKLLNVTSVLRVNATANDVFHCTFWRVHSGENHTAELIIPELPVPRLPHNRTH

B1: BAP058-hum11 (antibody, human IgG4 S228P, kappa, V domains shown)
VH: EVQLVQSGAEVKKPGATVKISCKVSGYTFTSYWMYWVRQATGQGLEWMGRIDPNSGSTKYNEKFKNRVTITADKSTSTAYMELSSLRSEDTAVYYCARDYRKGLYAMDYWGQGTTVTVSS
VL: DVVMTQSPLSLPVTLGQPASISCKASQDVGTAVAWYQQKPGQAPRLLIYWASTRHTGVPSRFSGSGSGTEFTLTISSLQPDDFATYYCQQYNSYPLTFGQGTKVEIKR
notes: Humanized IgG4(S228P)/human kappa mAb expressed in CHO cells
As a reminder, the Kd is the concentration at which binding is half-saturated. In the case of B1, the Kd with human PD-L1 protein came to 0.931 nM; in the experiment with cynomolgus PD-L1 protein it was 0.735 nM; with mouse PD-L1 protein it was 0.075 nM; with rat PD-L1 protein, 1.36 nM. In addition, in [1], the “Comp. binding (ratio conc. test mAb / conc. labelled murine BAP058 at the IC50)” value was found to be 1.3. For the same molecule, the “IC50 (read off the curve)” value in experiment [2] was about 0.04 mg/L. The same molecule gave a Rank in [3] of 4.

B2: murine anti-PD-L1 monoclonal antibody BAP058 (antibody, V domains shown)
VH: QVHLQQPGAELVKPGASVKLSCKASGYTFTSYWMYWVKQGPGRGLEWIGRIDPNSGSTKYNEKFKNKATLTVDKSSSTAYMQLSSLTSEDSAVYYCARDYRKGLYAMDYWGQGTSVTVSS
VL: DIVMTQSHKFMSTSVGDRVSITCKASQDVGTAVAWYQQKPGQSPKLLIYWASTRHTGVPDRFTGSGSGTDFTLTISNVQSEDLADYFCQQYNSYPLTFGAGSKLELK
notes: Murine mAb; also called murine mAb BAP058; murine parent mAb
One may read the IC50 as the midpoint of a concentration-inhibition curve. A high value points to weaker potency in that assay. Turning to B2, the “ratio for the IC50 value (concentration of test mAb over labelled murine BAP058)” value in [4] was 1.34. Besides, the IC50 in [5] was 0.3 nM.

B3: BAP058-hum13 (antibody, human IgG4 S228P, kappa, V domains shown)
VH: EVQLVQSGAEVKKPGATVKISCKVSGYTFTSYWMYWVRQARGQRLEWIGRIDPNSGSTKYNEKFKNRFTISRDNSKNTLYLQMNSLRAEDTAVYYCARDYRKGLYAMDYWGQGTTVTVSS
VL: AIQLTQSPSSLSASVGDRVTITCKASQDVGTAVAWYLQKPGQSPQLLIYWASTRHTGVPSRFSGSGSGTDFTFTISSLEAEDAATYYCQQYNSYPLTFGQGTKVEIKR
notes: as for B1
With B3, the Kd with human PD-L1 protein is 0.137 nM; with cynomolgus PD-L1 protein it was 0.431 nM; in the experiment with mouse PD-L1 protein, 0.04 nM; with rat PD-L1 protein it was 0.431 nM. Besides, the “Comp. binding (ratio conc. test mAb / conc. labelled murine BAP058 at the IC50)” value in experiment [1] was 2.91. Further, the “IC50 (read off the curve)” value in [2] is about 0.04 mg/L. The same molecule returned a Rank in [3] of 2.
